Results published in US8778645B2, “Method for the production of glutaconate” (BASF SE, priority 2009, dated 2014).

How the values were obtained:
[1] = target: Glutaconate CoA-transferase from A. fermentans (Acidaminococcus fermentans, UniProt Q59111+Q59112); details: Buckel et al. 1981; cited from earlier work
[2] = substrate: CC(C)(COP(=O)(O)OP(=O)(O)OC[C@H]1O[C@@H](n2cnc3c(N)ncnc32)[C@H](O)[C@@H]1OP(=O)(O)O)[C@@H](O)C(=O)NCCC(=O)NCCSC(=O)/C=C/C=C/C(=O)O; experiment: Substrate kinetics of 2-hydroxyglutaryl-CoA dehydratase with activator; format: biochemical, Clostridium symbiosum; details: other: substrate of the dehydratase; pH 7.0
Experimental: (§1) 2-Hydroxyglutaryl-CoA dehydratase activity was measured under anoxic conditions at ambient temperature in cuvettes of 0.5 ml total volume containing 50 mM Mops/KOH pH 7.0, 10 mM dithiothreitol, 5 mM MgCl2, 0.1 mM dithionite, 0.4 mM ATP, and […] with activator. After 10 minutes of incubation the reaction was started with 2 mM acetyl-CoA and 2 mM (R)-2-hydroxyglutarate. The increase of absorbance due to the formation of glutaconyl-CoA was followed at 290 nm (ε=2.2 mM^−1 cm^−1) (Kim J, Darley D J, Buckel W, Pierik A J (2008) An allylic ketyl radical intermediate in clostridial amino-acid fermentation. Nature 452:239-242).
(§2) a) 2-Hydroxyglutaryl-CoA dehydratase from Clostridium symbiosum and activator from Acidaminococcus fermentans

[3] = substrate: CC(C)(COP(=O)(O)OP(=O)(O)OC[C@H]1O[C@@H](n2cnc3c(N)ncnc32)[C@H](O)[C@@H]1OP(=O)(O)O)[C@@H](O)C(=O)NCCC(=O)NCCSC(=O)C(O)CCCC(=O)O; experiment: as above; format: biochemical, Clostridium symbiosum; details: other: substrate of the dehydratase; pH 7.0
Experimental: as §1, §2

[4] = substrate: CC(C)(COP(=O)(O)OP(=O)(O)OC[C@H]1O[C@@H](n2cnc3c(N)ncnc32)[C@H](O)[C@@H]1OP(=O)(O)O)[C@@H](O)C(=O)NCCC(=O)NCCSC(=O)[C@H](O)CCC(=O)O; experiment: as above; format: biochemical, Clostridium symbiosum; details: other: substrate of the dehydratase; pH 7.0
Experimental: as §1, §2

[5] = 2-Hydroxyglutaryl-CoA dehydratase activity in recombinant E. coli BL21; format: biochemical, C. symbiosum; details: recombinant E. coli BL21, with activator
Experimental: as §1
(§3) The genes were transformed into modified E. coli BL21-CodonPlus (DE3). An overnight anaerobic preculture (100 ml) of a fresh single colony was used to inoculate 1 liter Standard I medium, described above, containing antibiotics (carbenicillin, 100 μg·ml^−1; chloramphenicol, 50 μg·ml^−1) and grown at the same conditions. When the culture reached OD578=0.2, gene expression was induced with isopropyl-1-thio-β-D-galactoside, IPTG (240 mg·liter^−1) and anhydrotetracycline, AHT (200 μg·liter^−1). […]
(§4) In Table 9 the enzymatic activities are shown, which were measured in the recombinant E. coli strain.

[6] = 2-Hydroxyglutarate dehydrogenase activity in recombinant E. coli BL21; format: biochemical, A. fermentans
Experimental: 2-Hydroxyglutarate dehydrogenase activity was measured at ambient temperature in cuvettes of 0.5 ml total volume containing 0.1 M Tris/HCl pH 8.0, 0.2 mM NADH and 2-hydroxyglutarate dehydrogenase at room temperature. After addition of 1 mM α-ketoglutarate, the absorbance decrease of NADH was monitored at 340 nm (ε=6.3 mM^−1 cm^−1) (Bresser J (1997) (R)-2-Hydroxyglutarat-Dehydrogenase aus Acidaminococcus fermentans. PhD Thesis, Philipps-Universitä t Marburg, Germany; Martins B M, Macedo-Ribeiro S, Bresser J, Buckel W, Messerschmidt A (2005) Structural basis for stereo-specific catalysis in NAD^+-dependent (R)-2-hydroxyglutarate dehydrogenase from Acidaminococcus fermentans. Febs J 272:269-281).
as §3, §4

[7] = Glutaconate CoA-transferase activity in recombinant E. coli BL21; format: biochemical, A. fermentans
Experimental: Glutaconate CoA-transferase activity assay was performed aerobically at room temperature. The increase of absorbance was followed at 412 nm, Δε=14 mM^−1 cm^−1.
The genes were transformed into modified E. coli BL21-CodonPlus (DE3). An overnight anaerobic preculture (100 ml) of a fresh single colony was used to inoculate 1 liter Standard I medium, described above, containing antibiotics (carbenicillin, 100 μg·ml^−1; chloramphenicol, 50 μg·ml^−1) and grown at the same conditions. When the culture reached OD578=0.2, gene expression was induced with isopropyl-1-thio-β-D-galactoside, IPTG (240 mg·liter^−1) and anhydrotetracycline, AHT (200 μg·liter^−1). Cells were harvested 3 hours after induction (at OD578=0.573), washed and suspended in 20 ml of buffer (50 mM MOPS, 5 mM MgCl2 and 2 mM DTT) under anoxic conditions. The induced E. coli cells were lysed by French press and cell debris was removed by ultracentrifugation at 100 000 g at 4° C. for 1 hour.
as §4

## CC(=O)O [acetate]
[1]
  Substrate of the enzyme: acts on

## CCC(=O)O [propionate]
[1]
  Substrate of the enzyme: acts on

## O=C(O)/C=C/CC(=O)O [(E)-glutaconate]
[1]
  Substrate of the enzyme: acts on

## O=C(O)CC[C@@H](O)C(=O)O [(R)-2-hydroxyglutarate]
[1]
  Substrate of the enzyme: acts on

## C=CC(=O)O [acrylate]
[1]
  Substrate of the enzyme: acts on

## O=C(O)CCCCC(=O)O [adipate]
[1]
  Substrate of the enzyme: acts on

B1: 2-Hydroxyglutaryl-CoA dehydratase from Clostridium symbiosum and activator from Acidaminococcus fermentans ([Clostridium] symbiosum) (protein)
chain 1: MAKQVSPGVLALRKVVDDVHKEAREAKARGELVGWSSSKFPCELAAAFDLNVMYPENQAAGIAANRYGEMMCQAAEDLGYDNDICGYARISLAYAAGVRVSRKYDAETGEYIIDPATGKPLKDAEGNVVIDEATGKPKKDPKTQTPYLVLDNLLEIEALPDGPEKERRLEAISPIRQMRIPQPDFVLCCNNICNCMTKWYENIARMCNVPLIMIDIPYNNTVEVHDDNVKYVRAQFDKAIKQLEELTGKKFDEKKFEKACSNANRTAQAWLKVCDYLQYKPAPYSGFDLFNHMADVVTARARVEAAEAFELLADDLEETVKKGETTTPFPEKYRVMFEGIPCWPKLPNLFKPLKEHGVNVTAVVYAPAFGFVYNNIDEMARAYYKAPNSVCIEQGVDWREGICRDNKVDGVLVHYNRSCKPWSGYMAEMQRRFTEDLGVPCAGFDGDQADPRNFNAAQYETRVQGLVEAMEANKQAKEAK
chain 2: MSINALLDEFKVKAATPKQQLAEYKAQGKKVIGVLPYYAPEELVYAAGMVPMGIWGSNNKTISRAKEYCATFYCTIAQLALEMLLDGTMDQLDGIITPTICDTLRPMSQNFRVAMGDKMAVIFLAQPQNRFEDFGLQFSVDQYTNVKKELEKVAGKEITNEAIQDAIKVYNKSRAARRKFVELASAHCDVITPTKRSAVLKSFFFMEKPEYIEKLEELNAELEKLPVCDWQGTKVVTSGIICDNPKLLEIFEENNIAIAADDVGHESRSFRVDAPEDEADALMALAKQFANMDYDVLLYDPKSTENRRGEFIANMVKESGAQGLVLFMQQFCDPEEMEYPYLKKALNNAGIPHIKLGIDQQMRDFGQASTAIQAFADVLEMQK
[2]
  Km: 570 µM
  kcat: 1.9 s⁻¹
[3]
  Km: 100 µM
  kcat: 17.4 s⁻¹
[4]
  Km: 52 µM
  kcat: 83 s⁻¹

B2: 2-Hydroxyglutaryl-CoA dehydratase + activator: dehydratase (hgdAB) from C. symbiosum with activator (hgdC) from A. fermentans, expressed in E. coli BL21 (protein, listed as Clostridium symbiosum)
chain 1: B1 chain 1
chain 2: B1 chain 2
chain 3: MSIYTLGIDVGSTASKCIILKDGKEIVAKSLVAVGTGTSGPARSISEVLENAHMKKEDMAFTLATGYGRNSLEGIADKQMSELSCHAMGASFIWPNVHTVIDIGGQDVKVIHVENGTMTNFQMNDKCAAGTGRFLDVMANILEVKVSDLAELGAKSTKRVAISSTCTVFAESEVISQLSKGTDKIDIIAGIHRSVASRVIGLANRVGIVKDVVMTGGVAQNYGVRGALEEGLGVEIKTSPLAQYNGALGAALYAYKKAAK
modifications: Acidaminococcus fermentans
[5]
  Activity, U: 0.23 U
  Specific activity, U/mg: 0.80 U/mg

B3: 2-Hydroxyglutarate dehydrogenase: enzyme from A. fermentans (hgdH) expressed in recombinant E. coli BL21 (protein)
chain: MKVLCYGVRDVELPIFEACNKEFGYDIKCVPDYLNTKETAEMAAGFDAVILRGNCFANKQNLDIYKKLGVKYILTRTAGTDHIDKEYAKELGFPMAFVPRYSPNAIAELAVTQAMMLLRHTAYTTSRTAKKNFKVDAFMFSKEVRNCTVGVVGLGRIGRVAAQIFHGMGATVIGEDVFEIKGIEDYCTQVSLDEVLEKSDIITIHAPYIKENGAVVTRDFLKKMKDGAILVNCARGQLVDTEAVIEAVESGKLGGYGCDVLDGEASVFGKDLEGQKLENPLFEKLVDLYPRVLITPHLGSYTDEAVKNMVEVSYQNLKDLAETGDCPNKIK
modifications: Acidaminococcus fermentans
notes: enzyme from A. fermentans (hgdH) expressed in recombinant E. coli BL21
[6]
  Activity, U: 730 U
  Specific activity, U/mg: 250 U/mg

B4: Glutaconate CoA-transferase: enzyme from A. fermentans (gctAB) expressed in recombinant E. coli BL21 (protein)
chain 1: LSKVMTLKDAIAKYVHSGDHIALGGFTTDRKPYAAVFEILRQGITDLTGLGGAAGGDWDMLIGNGRVKAYINCYTANSGVTNVSRRFRKWFEAGKLTMEDYSQDVIYMMWHAAALGLPFLPVTLMQGSGLTDEWGISKEVRKTLDKVPDDKFKYIDNPFKPGEKVVAVPVPQVDVAIIHAQQASPDGTVRIWGGKFQDVDIAEAAKYTIVTCEEIISDEEIRRDPTKNDIPGMCVDAVVLAPYGAHPSQCYGLYDYDNPFLKVYDKVSKTQEDFDAFCKEWVFDLKDHDEYLNKLGATRLINLKVVPGLGYHIDMTKEDK
chain 2: MADYTNYTNKEMQAVTIAKQIKNGQVVTVGTGLPLIGASVAKRVYAPDCHIIVESGLMDCSPVEVPRSVGDLRFMAHCGCIWPNVRFVGFEINEYLHKANRLIAFIGGAQIDPYGNVNSTSIGDYHHPKTRFTGSGGANGIATYSNTIIMMQHEKRRFMNKIDYVTSPGWIDGPGGRERLGLPGDVGPQLVVTDKGILKFDEKTKRMYLAAYYPTSSPEDVLENTGFDLDVSKAVELEAPDPAVIKLIREEIDPGQAFIQVPTEAK
modifications: Acidaminococcus fermentans
notes: enzyme from A. fermentans (gctAB) expressed in recombinant E. coli BL21
[7]
  Activity, U: 0.71 U
  Specific activity, U/mg: 0.25 U/mg
